Reference: the nanobody polyreactivity screen of Harvey et al. (2022)

Experiment: yeast display, Sf9 membrane polyspecificity reagent, FACS + sequencing; frameworks hold sequencing errors
In short: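 A synthetic nanobody library was expressed on Saccharomyces cerevisiae BJ5465 by galactose induction for 36–48 hours. The library was stained for 1 hour at 4 °C with 10% biotinylated, detergent-solubilized Sf9 membrane reagent and enriched with streptavidin microbeads before FACS. Low and high (top ~1%) gates were set on anti-HA fluorescence for expression and streptavidin fluorescence for reagent binding, and each polyreactivity label reflects the gate of origin.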

Row | Sequence | polyreactivity (PSR sort gate)
1 | QVQLVESGGGLVQAGGSLRLSCAASGRTFRPYAMGWYRQAPGKERELVAAISYRGGITNYADSVKGRFTISRDNAKNTVYLQMNSLKPEDTAVYYCNRYAIWVSRFSDLDYWGQGTQVTVSS | low polyreactivity
2 | QFQLVESGGGLVQAGGSLRLSCAASGINFSSYVMGWYRQAPGKERELVAAISKSGARTSYADSVKGRFSISRDNAKNTVYLQMNSLKPEDTAVYYCNAYTESWYPIYFFGWSYTAVDYWGQGTQVTVSS | low polyreactivity
3 | QVQLVESRGGLVQAGGSLRLSCDASGIIFVKYAMGWYRQAPGKERELVAAITSGGSTYYADSVKVRFTISRDNAKNTVYLQMNSLKPEDTAVYYCNADSWFLYYFTINGYWGQGTQVTVSS | high polyreactivity
4 | QVQLVESGGGLVQAGGSLRLSCAASGFIFGNNDMGWYRQAPGKERELVAGITWSGSSTYYADSVKGRFTISRDNAKNTVYLQMNSLKPEDTAVYYCNRVFTWRYGYRYEYWGQGTQVTVSS | high polyreactivity
5 | QVQIVESGGGLVQAGGSLRLSSAASGITFRHYAMGWYRQAPGKERELVAAITSRGGSTYYADSVKGRFTISRDNAKNTVYLQMNSLKPEDTAVYYCAKGTVHSRPDFGRGWYRWDDYWGQGSQVTVSS | high polyreactivity
6 | QVQLVESGGGLVQAGGSLRLSCAASGSIFDYYAMGWYRQAPGKERELVAAISWSGGSTYYADSVKGRFTISRDNAKNTVYLQMNSLKPEDTAVYYCAAEYYGGELDYWGQGTQVTVSS | low polyreactivity
7 | QVQLVESGGGLVQAGGSLRLSCAASGSIFHYNAMGWYRQAPGKERELVAAITTSGGSTYYADSVKGRFTISRDNAKNTVYLQMNSLKPEDTAVYYCAADLVWTRYFGYAPDYYIEFDYWGQGTQVTVSS | high polyreactivity
8 | QVQLVESGGGLVQAGGSLRLSCAASGRTFSTYVMGWYRQAPGKEREFVAAISTGGGSTYYADSVKGRFTISRDNAKNTVYLQMNSLKPEDTAVYYCAARLKWGWPTYDYWGQGTQVTVSS | high polyreactivity
9 | QVQLVESGGGLVQAGGRLRLSCAASGRIFYGNAMGRYRPAPVKERELVATISSSGGSTTYADSVKGRFTISRDNAKYTVYLQMNSLKPEDSAVYYCADQGYWTGYDYWGQGSQVTVSS | high polyreactivity
10 | QVQLVESGGGLVQAGGSLRLSCAASGIIFLDYVMGWYRQAPGKERELVAAINSGGSTYYADSVKGRFTISRDNAKNTVYLQMNSLKPEDTAVYYCAADDYYKFDYWGQGTQVSVSS | low polyreactivity
11 | QVQLVESGGGLVQAGGSLRLSCAASGYIFSYNAMGWYRQAPGKERELVAAMTASGGGTYYADSVKGRFTISRDNAKNTVYLQMNSLKPEDTAVYYCAADFNDHYYWYGQDYDYWGQGTQVTVSS | low polyreactivity
12 | QVQLVDSGVGLVQAGGSHRLSCAASAFTIDGYDMGWYRQAPGKERELVAAISWDGGSTYYADSVKGRFTISRDNAKNTVYLQMNSLKPEDTAVYYCAAPFPFVSEFYRYDYWGQGTQVTVST | low polyreactivity
13 | QVQLVESGGGIVQAGGSLRLSCAASGRTFPRYAMGWYRQAPGKERELVAAISVRAGITYYADSVKGRFTISRDNAKNTVYLQMNSLKPEDTAVYYCAKDHWTTSYDEGDYWGQGTQVTVSS | low polyreactivity
14 | QVQLVESGGGLVQAGGSLRLSCAASGRIFFYYAMGWYRQAPGKERELVAAISSGGGSTYYADSVKGRFTISRDNAKNTVYLQMNSLKPEDTAVYYCAARTYRRRYLGWSQYVGPYDYWGQVTQVTVSS | high polyreactivity
15 | QVQLVESGGGLLKAGGSLRLSCAASGFTVDGYGMGWYRQAPGKERELVAVITSGGSTKYADSVKGRYTISRDNAKITVYLQMKSLKPEDTAVYYCNVVGGRYLYSAYDYWGQGTQVTVSS | low polyreactivity
16 | QVQLVESGGCLVQAGGSLRLSCAASGIIFYYYAMGWSRQAPGKEREFVAGIRWSSGSTYYADSVKGRFTISRDNAKNTVYLQMNSLKPEDTAVYYCAAAYLSWYGGYYYWGQGSQVTVSS | low polyreactivity
17 | QVQLVESGGGLVQAGGSLRLSCAASGFIFVRYAMGWYRQAPGKERELVAAISTSGSSTYYADSVKGRFTISRDNAKNTVFLQMNSLKPEDTAVYYCAAKDRGQSYGYWGQGTQVTVSS | high polyreactivity
18 | QVQIEESGGGLVQAGGSLRLICAASGIIIMDYDMGWSRQAPGKERELVAAISRSGGSTYYADSVKGRFKISRDNAKNSVYLQMNSLKPEDTAVYYCNADNVDYPSAPLNPGKGIYYWGQGTQVTVSS | low polyreactivity
19 | QVQLVESGGGLLQAGGSLRLSCAASGSIFNYSAMGWYRQAPGTERELVATISSGGNTKYADSVKGRFTISRDNAKNTVYLQMNSLKPEDTAVYYCAARWQHSGYRDRYWYDYWGQGTQVTVSS | low polyreactivity
20 | QVQLVESAGGLVQAGGSLRLSCAASGTILWWNAMGRYRPAPGKERELVADITSDGTYADSVKGRFTISRDNAKNTVYLQMNSLKPEDTAVYYCAAVDAYGPGLNGYDYWGQGTQVTVSS | low polyreactivity
21 | QVQLVESGGGLVQAGGSLRLICAASGLILKNYAMGWYRQAPGKERELVAAITRSGGSTYYADSVKGRFTISRDNAKNTVYLQMNSLKPEDTAVYDCAARNPSGKGRYDYWGQGTQVTVSS | high polyreactivity
22 | QVQLVESGGLLVQAGGSLRLRGAASGSTIPRNAMGWYRQAPGKERELVASITSDGGSTYYADSVKGRFTISRDNAQITVYLQMNSLNPEDTAVYYFNAYTRYGLFAYDYWGQGTQVTVSS | high polyreactivity

Row | Sequence | polyreactivity (PSR sort gate)
23 | QVQLQESGRRPRAAGGSPRMSCAASGNIIWVAVMCRYRQAPVKERELVASIGFGCTTYYADSVKCRFTISRDNAKNTVYLQMISLIPEDTAVYYCAAPHYDWGELDFWGQGTQVPVSS | low polyreactivity
24 | QVQLVESGGGLVQAGGSLRLSCAASGRIFYWYAMGWYRQAPGKERELVATINQSGSSTYYADSVKGRFTISRDNAKNTVYLQMYSLKPEDTAVYYCNAGGQRPHSVGLVGEMGYWGQGTKVTVSS | high polyreactivity
25 | QDQHVESGGGLVQAGGSLRLSCAASGHTFRLYTMGWYRQAPGKEREFVAAIRRRTGSTYYADSVKGRFTISRDNAQNTVYLQRNSMKAEVTAVYYCNAVGDARYNYRGQGTQVTVSS | high polyreactivity
26 | QVQLVESGGGLVQAGGSLRLSCAASGITFAYYAMGWYRQAPGTEREWVAAISRSGGGTYYADSVKGRFTISRDNAKNTVYLQMNTLIPEDTAVYYCNKDYPYYNSGPWAYKFDYCGQGTQVTVSS | high polyreactivity
27 | QVQLVESGGGLVQAGGSLRLSCAASGSTHNQNAMGWSRQAPGKETELVAAISSNGGTTYYADSVKWRFTISRDNAKNTVYLQMNSLKQEDTAVYYCAADWDRYVPRSYYRVSWYDYWGQGTQVTVSS | low polyreactivity
28 | QVQLVESGGGLVKAGGSLRLSCAASGRICSSYAMGWYRQAPGKERELVAAISRGGGRTYYADSVKGRFTNSRDNAKNTVYLQMNSLKPEDTAGYYCAAGRRYASEMDYWGLGTQVTVSS | high polyreactivity
29 | QVQLVDSGGGLVQAGGSLRLSCAASGRTFTYYAMGWYRQAPGKERELVASISTTGRTYYADSVKGRFTITRDNAKNTVYLQMNSLKREDTAVYYCNASRVRRWNDYYKKFDYWGQGTQVTVSS | high polyreactivity
30 | QVQLVESGGGLVQAGGSLRLSCAASGYTFQKYAMGWYIQAPGKERELVAAITRSGTRTYYADSVKGRFTISRDNAKNTVYLQMNSLKPEDTAVYYCAAETYYSIYDYWGQGTQVTVSS | high polyreactivity
31 | QVQLVESGGGLVQAGGSLRLSCAASGSTFSLNAMGWYRQAPGKERELVAAITRSGGSTYYADSVKGRFTISRDNAKNTVYLQMNSLKPEDTAVYYCAALPRWSHRYDDWGQGTQVTVSS | high polyreactivity
32 | QVQLVESGGGLVQAGGSLRLSCAASGFTFYSYAMGWYRQAPGKERELVAAITQSGGSTYYADSVKGRFTISRDNAKNTVYLQMNSLKPEDTAVYYCAADIYNDYDYGYYYWGQGTQVTVSS | low polyreactivity
33 | QVQLGESGGGLVQAGGSLRLSCAASGSIFVRNAMGWYRQAPGKERELVAAINGRGTSTYYADSVKGRFTISRDNAKNTVYLQMNSLKPEDTAVYYCATSLTSPRRAYGYWGQGTQVTVSS | high polyreactivity
34 | QVQLVESGGGLVQAGGSLRLSCAASGFTFGGNVMGWYRQAPGKERELVAAIRGTGGNTYYADSVKGRFTISRDNAKNTVYLQMNSLKPEDTAVYYCAAAQRELPTVRRNYWGQGTQVTVSS | high polyreactivity
35 | QVQLVESGGGLVQAGGSLRLSCAASGRIFYGYTMGWYRQAPGKERELVADISWRGGSTSYADSVKGRFTISRDNAKNTVYLQMNSLKPEDTAVYYCAKRYRPESLYPFYNPYDYWGQGTQVTVSS | low polyreactivity
36 | QVQLVESGGGLVQAGGSLRLSCAASGIFGYNARGWYRQAPGKERELVAAITSSGTSTYYADSVKGRFTISRDNAKNTVYLQMNSLKPEDTAVYYCAALHSGTWTGYGYWGQGTQVTVSS | low polyreactivity
37 | QVQLVESGGGLVQAGGSLRLSCASYGSIFSSYFMGWYRQAPGKERELVAAISSGGRTYYADSVKGRFTISRDNAKNTVYIQMKSLKPEDTAVFYCNRVRYRQSAFDYWGQGTQVTVSS | high polyreactivity
38 | QVQLVESGGGLVQAGGSLRLSCAASGSIFYKYTMGWYRQAPGKERELVAAITRSGGSTYYADSVKGRFTISRDNAKNTVYLQMNSLKPEDTAVYYCAAERASFRYQDYYIYDYWGQGTQVTVSS | high polyreactivity
39 | QVQLVESGGGLVQAGGSLRLSCAASGITFGYYAMGWSRQAPGKERELVAAIRSSGGSTYYADSVKGRFTISRDNAKNNVYLQMNSLKPEDTAVYYCNARYRKSSRPGYEPYERYYWGQGTQVTVSS | high polyreactivity
40 | QVQQQESGGGLVQAGGSLRLSCAASGTIFQLTVMRRYRQAPGKERELVASIDYGGNTNYADSVKGRFTISRDNAKNTVYLQMNSLKPEDTAVYYCAASSDSWTTHPYWGQGTQVTVSS | low polyreactivity
41 | QVQLVESGGGLVQAGGSLRLSCAASGLTFVSYAMGWSRQAPGQEREFVAAINRSGGSPYYADSVKGRFTISRDNAKTTVYLQMNSLKPEDTALYYCAARRNLAYYHSGYWGQGTQVTVSS | high polyreactivity
42 | QVQLVESGGGLVQAGGSLRLSCAASGRIFYSNAMGWYRQAPGKERELVAASRWSGTRTSYADSVKGRFTISRDNAKNTVYLQMNSLKPEDTAVYYCAAAGWYHSYWGQGTQVTVSS | high polyreactivity
43 | QVQLVESGGGLVQAGGSLRLSCAASGIIFAYAMGWYRQAPGKERELVAAISGRDGSTYYADSVKGRFTISRDNAKNTVYLQMNSLKPEDTAVYYCNAVRGSYSWQMYYWGQGTQVTVSS | low polyreactivity
